Assay results reported in the supplement of paper PMC9112550, “Optimization of the antimicrobial peptide Bac7 by deep mutational scanning” (BMC Biology, 2022).

Tested on: Escherichia coli TOP10
Test: shrunken log2 fold change of peptide-encoding DNA abundance (4.5 h post-induction vs induction); higher = less antimicrobial activity (less host growth inhibition)
Conditions: time post-induction: 4.5 h; library: site-saturation at positions 5, 18, 19, 20
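Further: peptides expressed intracellularly from a pBAD plasmid library in pooled LB shake-flask culture, induced with 0.3% L-arabinose, DNA abundance read by NGS, three biological replicates, DESeq2 with apeglm shrinkage.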

Sequence | shrunken log2 fold change
RRIRPRPPRLPRPRPRPMHLPRP | -0.034
RRIRRRPPRLPRPRPRPQFKPRP | -0.145
RRIRPRPPRLPRPRPRPQDAPRP | 0.355
RRIRTRPPRLPRPRPRPLFYPRP | -0.467
RRIRFRPPRLPRPRPRPDHHPRP | -0.452
RRIRVRPPRLPRPRPRPHDLPRP | -0.226
RRIRKRPPRLPRPRPRPCEKPRP | 0.492
RRIRDRPPRLPRPRPRPLFYPRP | -0.258
RRIRTRPPRLPRPRPRPCSSPRP | -0.0634
RRIRERPPRLPRPRPRPNCTPRP | -0.102
RRIRTRPPRLPRPRPRPVCIPRP | -0.195
RRIRKRPPRLPRPRPRPQASPRP | 0.353
RRIRHRPPRLPRPRPRPAMQPRP | 0.325
RRIRTRPPRLPRPRPRPPFDPRP | 0.104
RRIRARPPRLPRPRPRPAACPRP | 0.754
RRIRARPPRLPRPRPRPIVCPRP | 0.00943
RRIRDRPPRLPRPRPRPQYIPRP | -0.246
RRIRPRPPRLPRPRPRPKKNPRP | 0.0249
RRIRRRPPRLPRPRPRPIGKPRP | -0.0155
RRIRRRPPRLPRPRPRPDMMPRP | -0.137
RRIRARPPRLPRPRPRPANRPRP | 0.467
RRIRIRPPRLPRPRPRPFVNPRP | -0.488
RRIRLRPPRLPRPRPRPRFHPRP | -0.208
RRIRGRPPRLPRPRPRPPTGPRP | 0.741
RRIRYRPPRLPRPRPRPEAMPRP | -0.0891

Sequence | shrunken log2 fold change
RRIRYRPPRLPRPRPRPKDWPRP | -0.176
RRIRPRPPRLPRPRPRPHWDPRP | -0.208
RRIRKRPPRLPRPRPRPQPHPRP | 0.554
RRIRRRPPRLPRPRPRPVYGPRP | -0.0668
RRIRTRPPRLPRPRPRPSPGPRP | 0.103
RRIRFRPPRLPRPRPRPRILPRP | 0.0716
RRIRHRPPRLPRPRPRPERLPRP | 0.0977
RRIRERPPRLPRPRPRPFFMPRP | -0.0808
RRIRNRPPRLPRPRPRPTCPPRP | 0.059
RRIRERPPRLPRPRPRPRFAPRP | 0.0577
RRIRTRPPRLPRPRPRPLIDPRP | -0.0458
RRIRKRPPRLPRPRPRPHDHPRP | -0.162
RRIRMRPPRLPRPRPRPHMPPRP | -0.206
RRIRHRPPRLPRPRPRPRDVPRP | -0.191
RRIRCRPPRLPRPRPRPDNMPRP | -1.31
RRIRQRPPRLPRPRPRPWTQPRP | 0.0496
RRIRVRPPRLPRPRPRPVPAPRP | 0.391
RRIRFRPPRLPRPRPRPSCSPRP | -0.498
RRIRNRPPRLPRPRPRPDAIPRP | 0.0267
RRIRCRPPRLPRPRPRPNNIPRP | -0.843
RRIRCRPPRLPRPRPRPVSCPRP | 0.193
RRIRVRPPRLPRPRPRPIQLPRP | -0.174
RRIRDRPPRLPRPRPRPLHSPRP | 0.0372
RRIRTRPPRLPRPRPRPTAWPRP | 0.48
RRIRLRPPRLPRPRPRPGVYPRP | -0.221

Sequence | shrunken log2 fold change
RRIRCRPPRLPRPRPRPTECPRP | -0.168
RRIRMRPPRLPRPRPRPTHMPRP | 0.362
RRIRRRPPRLPRPRPRPVICPRP | 0.164
RRIRGRPPRLPRPRPRPVCQPRP | 0.664
RRIRGRPPRLPRPRPRPSTTPRP | 0.875
RRIRPRPPRLPRPRPRPCETPRP | 0.0508
RRIRYRPPRLPRPRPRPTRDPRP | -0.0311
RRIRPRPPRLPRPRPRPMCSPRP | -0.152
RRIRVRPPRLPRPRPRPRFIPRP | -0.318
RRIRQRPPRLPRPRPRPDCHPRP | -0.0897
RRIRSRPPRLPRPRPRPCAHPRP | -0.235
RRIRHRPPRLPRPRPRPNSMPRP | -0.401
RRIRTRPPRLPRPRPRPSDGPRP | 0.0381
RRIRVRPPRLPRPRPRPERPPRP | 0.0183
RRIRWRPPRLPRPRPRPNYEPRP | -0.222
RRIRYRPPRLPRPRPRPGMIPRP | -0.252
RRIRRRPPRLPRPRPRPCRWPRP | 0.11
RRIRHRPPRLPRPRPRPCYLPRP | -0.897
RRIRIRPPRLPRPRPRPYWPPRP | -0.28
RRIRLRPPRLPRPRPRPHIQPRP | -0.341
RRIRWRPPRLPRPRPRPRMWPRP | 0.36
RRIRIRPPRLPRPRPRPPTWPRP | -0.101
RRIRNRPPRLPRPRPRPVIEPRP | -0.0754
RRIRDRPPRLPRPRPRPQSFPRP | -0.0337
RRIRPRPPRLPRPRPRPYYLPRP | -0.745
